Where “and” joins values, the source holds several entries; their conditions need not be identical. Equal entries are not always repeated.
Columns and labels:
Galectin-9 (human) [1] = molecular target: Galectin-9 (human) (UniProt O00182); test: flow cytometry, CD3+ T cells, S3 organoid fraction, CRC
Galectin-9 (human) [2] = molecular target: Galectin-9 (human) (UniProt O00182); test: flow cytometry, CD3+ T cells, S3 organoid fraction, HCC
Galectin-9 (human) [3] = molecular target: Galectin-9 (human) (UniProt O00182); test: flow cytometry, CD3+ T cells, S3 organoid fraction, PDA
Galectin-9 (human) [4] = molecular target: Galectin-9 (human) (UniProt O00182); test: flow cytometry, CD3+ T cells, S2 single cell fraction, CRC
Galectin-9 (human) [5] = molecular target: Galectin-9 (human) (UniProt O00182); test: flow cytometry, CD3+ T cells, S2 single cell fraction, PDA
Galectin-9 (human) [6] = molecular target: Galectin-9 (human) (UniProt O00182); test: flow cytometry, EPCAM+ tumor cells, S3 organoid fraction, CRC
Galectin-9 (human) [7] = molecular target: Galectin-9 (human) (UniProt O00182); test: flow cytometry, EPCAM+ tumor cells, S3 organoid fraction, HCC
Galectin-9 (human) [8] = molecular target: Galectin-9 (human) (UniProt O00182); test: flow cytometry, EPCAM+ tumor cells, S3 organoid fraction, PDA
Galectin-9 (human) [9] = molecular target: Galectin-9 (human) (UniProt O00182); test: flow cytometry, CD11b+ myeloid cells, S3 organoid fraction, CRC
Galectin-9 (human) [10] = molecular target: Galectin-9 (human) (UniProt O00182); test: flow cytometry, CD11b+ myeloid cells, S3 organoid fraction, HCC
Galectin-9 (human) [11] = molecular target: Galectin-9 (human) (UniProt O00182); test: flow cytometry, CD11b+ myeloid cells, S3 organoid fraction, PDA
Galectin-9 (human) [12] = molecular target: Galectin-9 (human) (UniProt O00182); test: flow cytometry, EPCAM+ tumor cells, S2 single cell fraction, CRC
Galectin-9 (human) [13] = molecular target: Galectin-9 (human) (UniProt O00182); test: flow cytometry, EPCAM+ tumor cells, S2 single cell fraction, PDA
Galectin-9 (human) [14] = molecular target: Galectin-9 (human) (UniProt O00182); test: flow cytometry, CD3+ T cells, S3 organoid fraction, Pancreas NET
Galectin-9 (human) [15] = molecular target: Galectin-9 (human) (UniProt O00182); test: flow cytometry, CD11b+ myeloid cells, S2 single cell fraction, CRC
Galectin-9 (human) [16] = molecular target: Galectin-9 (human) (UniProt O00182); test: flow cytometry, CD11b+ myeloid cells, S2 single cell fraction, PDA
Galectin-9 (human) [17] = molecular target: Galectin-9 (human) (UniProt O00182); test: flow cytometry, EPCAM+ tumor cells, S3 organoid fraction, Liver NET
Galectin-9 (human) [18] = molecular target: Galectin-9 (human) (UniProt O00182); test: flow cytometry, CD3+ T cells, S2 single cell fraction, Pancreas NET
Galectin-9 (human) [19] = molecular target: Galectin-9 (human) (UniProt O00182); test: flow cytometry, EPCAM+ tumor cells, S2 single cell fraction, Liver NET
Galectin-9 (human) [20] = molecular target: Galectin-9 (human) (UniProt O00182); test: flow cytometry, EPCAM+ tumor cells, S3 organoid fraction, Pancreas NET
Galectin-9 (human) [21] = molecular target: Galectin-9 (human) (UniProt O00182); test: flow cytometry, CD11b+ myeloid cells, S3 organoid fraction, Pancreas NET
Galectin-9 (human) [22] = molecular target: Galectin-9 (human) (UniProt O00182); test: flow cytometry, CD3+ T cells, S3 organoid fraction, CRC liver metastasis
Galectin-9 (human) [23] = molecular target: Galectin-9 (human) (UniProt O00182); test: flow cytometry, EPCAM+ tumor cells, S2 single cell fraction, Pancreas NET
Galectin-9 (human) [24] = molecular target: Galectin-9 (human) (UniProt O00182); test: flow cytometry, CD11b+ myeloid cells, S2 single cell fraction, Pancreas NET
Galectin-9 (human) [25] = molecular target: Galectin-9 (human) (UniProt O00182); test: flow cytometry, CD3+ T cells, S2 single cell fraction, CRC liver metastasis
Galectin-9 (human) [26] = molecular target: Galectin-9 (human) (UniProt O00182); test: flow cytometry, EPCAM+ tumor cells, S3 organoid fraction, CRC liver metastasis
Galectin-9 (human) [27] = molecular target: Galectin-9 (human) (UniProt O00182); test: flow cytometry, CD11b+ myeloid cells, S3 organoid fraction, CRC liver metastasis
Galectin-9 (human) [28] = molecular target: Galectin-9 (human) (UniProt O00182); test: flow cytometry, EPCAM+ tumor cells, S2 single cell fraction, CRC liver metastasis
Galectin-9 (human) [29] = molecular target: Galectin-9 (human) (UniProt O00182); test: flow cytometry, CD11b+ myeloid cells, S2 single cell fraction, CRC liver metastasis

Sequence of Galectin-9 (human) (O00182 whole entry): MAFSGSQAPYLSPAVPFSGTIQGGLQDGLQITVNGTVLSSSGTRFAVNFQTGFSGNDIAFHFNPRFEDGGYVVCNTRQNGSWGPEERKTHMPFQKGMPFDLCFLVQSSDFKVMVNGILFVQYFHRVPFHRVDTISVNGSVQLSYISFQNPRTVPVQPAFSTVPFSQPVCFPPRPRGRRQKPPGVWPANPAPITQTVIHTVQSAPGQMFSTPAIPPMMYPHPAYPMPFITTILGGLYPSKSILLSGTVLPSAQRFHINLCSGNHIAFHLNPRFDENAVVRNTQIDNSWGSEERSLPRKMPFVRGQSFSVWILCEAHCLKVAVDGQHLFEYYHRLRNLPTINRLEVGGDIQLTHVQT

% Gal9 expression based on staining (Galectin-9 (human) [1]): 0% and 15.3% and 0.87%
% Gal9 expression based on staining (Galectin-9 (human) [2]): 1.14%
% Gal9 expression based on staining (Galectin-9 (human) [3]): 0% and 0.59%
% Gal9 expression based on staining (Galectin-9 (human) [4]): 2.5% and 1.59%
% Gal9 expression based on staining (Galectin-9 (human) [5]): 0% and 0.52%
% Gal9 expression based on staining (Galectin-9 (human) [6]): 0.21% and 2.27% and 0.55%
% Gal9 expression based on staining (Galectin-9 (human) [7]): 5.84%
% Gal9 expression based on staining (Galectin-9 (human) [8]): 0.17% and 0.94%
% Gal9 expression based on staining (Galectin-9 (human) [9]): 0.38% and 11.8% and 2.4%
% Gal9 expression based on staining (Galectin-9 (human) [10]): 1.72%
% Gal9 expression based on staining (Galectin-9 (human) [11]): 3.83% and 0.54%
% Gal9 expression based on staining (Galectin-9 (human) [12]): 0.64% and 3.97%
% Gal9 expression based on staining (Galectin-9 (human) [13]): 0.15% and 0.88%
% Gal9 expression based on staining (Galectin-9 (human) [14]): 4.96%
% Gal9 expression based on staining (Galectin-9 (human) [15]): 2.86% and 5.84%
% Gal9 expression based on staining (Galectin-9 (human) [16]): 1.19% and 0%
% Gal9 expression based on staining (Galectin-9 (human) [17]): 0.02%
% Gal9 expression based on staining (Galectin-9 (human) [18]): 32.2%
% Gal9 expression based on staining (Galectin-9 (human) [19]): 0.45%
% Gal9 expression based on staining (Galectin-9 (human) [20]): 4.19%
% Gal9 expression based on staining (Galectin-9 (human) [21]): 1.87%
% Gal9 expression based on staining (Galectin-9 (human) [22]): 0%
% Gal9 expression based on staining (Galectin-9 (human) [23]): 2.41%
% Gal9 expression based on staining (Galectin-9 (human) [24]): 16.2%
% Gal9 expression based on staining (Galectin-9 (human) [25]): 0.56%
% Gal9 expression based on staining (Galectin-9 (human) [26]): 0.06%
% Gal9 expression based on staining (Galectin-9 (human) [27]): 1.5%
% Gal9 expression based on staining (Galectin-9 (human) [28]): 0.15%
% Gal9 expression based on staining (Galectin-9 (human) [29]): 1.2%
Substance: Fab isotype

Source: patent US20220178930A1
